Measured values as given in IntAct's records for PubMed 18084303.

Target: Nlgn1, Q99K10-1
Sequence (Q99K10 whole entry): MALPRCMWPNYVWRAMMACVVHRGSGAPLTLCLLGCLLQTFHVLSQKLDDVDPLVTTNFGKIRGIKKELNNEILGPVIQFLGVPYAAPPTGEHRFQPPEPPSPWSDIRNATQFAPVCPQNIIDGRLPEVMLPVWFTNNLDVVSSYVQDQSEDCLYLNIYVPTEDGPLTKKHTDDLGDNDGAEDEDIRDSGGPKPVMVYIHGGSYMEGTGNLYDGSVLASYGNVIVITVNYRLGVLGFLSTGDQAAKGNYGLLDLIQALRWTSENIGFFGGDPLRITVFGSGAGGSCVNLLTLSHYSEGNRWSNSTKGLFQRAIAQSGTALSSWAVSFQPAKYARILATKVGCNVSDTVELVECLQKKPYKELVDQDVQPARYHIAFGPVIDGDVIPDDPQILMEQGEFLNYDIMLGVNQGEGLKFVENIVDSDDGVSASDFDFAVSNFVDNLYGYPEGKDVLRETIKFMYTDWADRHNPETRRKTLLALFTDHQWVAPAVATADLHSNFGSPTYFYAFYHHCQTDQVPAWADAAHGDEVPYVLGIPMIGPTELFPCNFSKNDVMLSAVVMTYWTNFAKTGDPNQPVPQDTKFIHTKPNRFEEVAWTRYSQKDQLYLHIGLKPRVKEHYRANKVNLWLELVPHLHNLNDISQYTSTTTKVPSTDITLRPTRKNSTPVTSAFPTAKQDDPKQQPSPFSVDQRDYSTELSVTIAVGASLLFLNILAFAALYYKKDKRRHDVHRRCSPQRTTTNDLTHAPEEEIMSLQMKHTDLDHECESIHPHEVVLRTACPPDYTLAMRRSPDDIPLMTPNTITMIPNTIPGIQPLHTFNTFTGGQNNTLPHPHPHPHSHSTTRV

Neurexin-1-beta (Homo sapiens), P58400-1 L139R, sequence (P58400 other isoform, or with tags, fused parts or gaps L139R): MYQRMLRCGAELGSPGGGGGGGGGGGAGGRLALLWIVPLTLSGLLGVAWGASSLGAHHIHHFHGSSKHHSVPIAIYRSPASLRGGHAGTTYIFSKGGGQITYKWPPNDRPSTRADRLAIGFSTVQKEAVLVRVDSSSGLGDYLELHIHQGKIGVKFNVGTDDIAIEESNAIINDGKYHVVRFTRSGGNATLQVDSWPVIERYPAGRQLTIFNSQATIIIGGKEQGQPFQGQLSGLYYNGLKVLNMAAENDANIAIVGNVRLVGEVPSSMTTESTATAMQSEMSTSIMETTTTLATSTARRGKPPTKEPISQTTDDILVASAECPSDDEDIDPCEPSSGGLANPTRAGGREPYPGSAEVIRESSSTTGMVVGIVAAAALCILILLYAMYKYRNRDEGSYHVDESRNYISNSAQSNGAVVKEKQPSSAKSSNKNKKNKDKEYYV
Neurexin-1-beta (Homo sapiens), P58400-1 D141S, sequence (P58400 other isoform, or with tags, fused parts or gaps D141S): as the sequence (P58400 other isoform, or with tags, fused parts or gaps L139R) above
Neurexin-1-beta (Homo sapiens), P58400-1 L240R, sequence (P58400 other isoform, or with tags, fused parts or gaps L240R): as the sequence (P58400 other isoform, or with tags, fused parts or gaps L139R) above
Neurexin-1-beta (Homo sapiens), P58400-1 S111R, sequence (P58400 other isoform, or with tags, fused parts or gaps S111R): as the sequence (P58400 other isoform, or with tags, fused parts or gaps L139R) above

Row | Substance | effect of a mutation on the interaction
1 | Neurexin-1-beta (Homo sapiens), P58400-1 D141S | disrupting interaction
2 | Neurexin-1-beta (Homo sapiens), P58400-1 S111R | disrupting interaction
3 | Neurexin-1-beta (Homo sapiens), P58400-1 L240R | disrupting interaction
4 | Neurexin-1-beta (Homo sapiens), P58400-1 L139R | disrupting interaction
